Molecular target: T1, AXL receptor tyrosine kinase (Homo sapiens, UniProt P30530 26-894, O-linked glycan (site not stated) reported as the TAG_TNB1 epitope)
T1 sequence (looked up): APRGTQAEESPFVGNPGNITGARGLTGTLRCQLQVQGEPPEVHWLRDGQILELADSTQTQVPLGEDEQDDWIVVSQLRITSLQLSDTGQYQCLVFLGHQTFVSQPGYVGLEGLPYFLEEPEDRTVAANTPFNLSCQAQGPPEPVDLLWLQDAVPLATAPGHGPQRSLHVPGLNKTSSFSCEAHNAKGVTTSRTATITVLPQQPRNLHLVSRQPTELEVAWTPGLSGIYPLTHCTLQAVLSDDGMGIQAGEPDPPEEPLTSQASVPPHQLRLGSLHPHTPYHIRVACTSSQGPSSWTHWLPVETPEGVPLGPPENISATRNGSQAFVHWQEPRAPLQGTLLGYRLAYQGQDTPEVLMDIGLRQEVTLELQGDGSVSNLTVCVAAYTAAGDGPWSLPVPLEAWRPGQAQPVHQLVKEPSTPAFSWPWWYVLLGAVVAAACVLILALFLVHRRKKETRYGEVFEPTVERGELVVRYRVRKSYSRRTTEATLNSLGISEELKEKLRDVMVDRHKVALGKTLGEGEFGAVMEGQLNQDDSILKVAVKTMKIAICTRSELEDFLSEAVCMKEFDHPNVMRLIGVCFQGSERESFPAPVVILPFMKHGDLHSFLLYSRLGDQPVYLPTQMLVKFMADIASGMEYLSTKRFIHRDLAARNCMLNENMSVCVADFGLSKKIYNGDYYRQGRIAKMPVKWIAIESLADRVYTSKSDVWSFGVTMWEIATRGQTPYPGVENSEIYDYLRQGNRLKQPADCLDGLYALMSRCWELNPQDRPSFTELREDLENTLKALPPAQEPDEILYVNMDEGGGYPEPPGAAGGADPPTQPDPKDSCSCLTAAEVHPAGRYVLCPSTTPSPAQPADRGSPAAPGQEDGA
Test: cell-based or functional assay

B1: ch_TAG_TNB1-saporin (antibody, V domains shown)
VH: QVKLQESGAELVKPGASVKLSCKASGFTFTSYYMYWVKQRPGQGLEWIGGVSPSNGGANFNEKFKTKATLTVDKSSSTAYMQLSSLTSEDSAVYYCTRFLYGPRYFDVWGQGTTVTVSS
VL: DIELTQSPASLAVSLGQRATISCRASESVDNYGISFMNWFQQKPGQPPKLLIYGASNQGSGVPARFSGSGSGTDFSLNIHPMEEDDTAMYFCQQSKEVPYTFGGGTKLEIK
modifications: Saporin toxin directly conjugated to the antibody; site and chain not stated
IC50, Cell Titre Glo cell viability, BT549 cells: 1.24 nM | IC50, Cell Titre Glo cell viability, H1299 cells: 0.0353 nM | IC50, Cell Titre Glo cell viability, Hs578T cells: 0.529 nM | IC50, Cell Titre Glo cell viability, MDA-MB-231 cells: 0.34 nM
